Test results from publication PMC6093632.

Target: full-length human TRPV6 (transient receptor potential vanilloid subfamily member 6) (human)
Assay: cryo-EM structure

Chain of full-length human TRPV6 (transient receptor potential vanilloid subfamily member 6) (human) (Q9H1D0 whole entry): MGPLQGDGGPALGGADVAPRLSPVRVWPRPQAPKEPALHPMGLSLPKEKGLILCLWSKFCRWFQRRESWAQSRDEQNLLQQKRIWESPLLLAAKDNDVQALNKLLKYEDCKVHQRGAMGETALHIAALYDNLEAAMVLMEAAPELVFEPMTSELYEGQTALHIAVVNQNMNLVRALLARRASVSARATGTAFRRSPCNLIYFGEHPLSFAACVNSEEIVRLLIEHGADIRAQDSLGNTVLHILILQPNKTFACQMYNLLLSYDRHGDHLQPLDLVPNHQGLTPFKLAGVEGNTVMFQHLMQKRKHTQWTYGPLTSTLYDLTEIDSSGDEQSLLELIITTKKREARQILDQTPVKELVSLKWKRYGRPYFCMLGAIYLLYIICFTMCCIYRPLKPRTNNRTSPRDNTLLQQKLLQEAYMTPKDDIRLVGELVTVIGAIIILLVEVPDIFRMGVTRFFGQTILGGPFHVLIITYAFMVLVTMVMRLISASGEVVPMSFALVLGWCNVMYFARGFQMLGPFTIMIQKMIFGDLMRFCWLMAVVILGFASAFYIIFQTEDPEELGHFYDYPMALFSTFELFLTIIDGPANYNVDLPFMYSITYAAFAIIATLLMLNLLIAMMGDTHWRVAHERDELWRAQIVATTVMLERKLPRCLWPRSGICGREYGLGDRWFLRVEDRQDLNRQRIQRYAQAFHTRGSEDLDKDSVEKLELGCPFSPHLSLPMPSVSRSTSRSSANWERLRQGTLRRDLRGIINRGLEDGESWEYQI

stoichiometry N (CaM molecule per hTRPV6 tetramer): 1
Substance: human calmodulin (CaM), recombinant (from UniProt P0DP23 1-149) (natural protein)
